Source: patent US20050136049A1 (TRUBION PHARMACEUTICALS, published 2005)

Biological target: T1, CD137 (4-1BB) (human, UniProt Q07011 24-255)
T1 construct: whole, on cells; also called CD137 on stimulated human PBMC
Assay: flow immunocytofluorimetry, hybridoma supernatant on anti-CD3 stimulated human PBMC, FITC goat anti-mouse IgG
Source text: Binding of 5B9 scFv IgG fusion protein or 5B9 murine monoclonal antibody was detected with FITC conjugated anti-human IgG or anti-mouse IgG, respectively.

T1 sequence (Q07011 24-255): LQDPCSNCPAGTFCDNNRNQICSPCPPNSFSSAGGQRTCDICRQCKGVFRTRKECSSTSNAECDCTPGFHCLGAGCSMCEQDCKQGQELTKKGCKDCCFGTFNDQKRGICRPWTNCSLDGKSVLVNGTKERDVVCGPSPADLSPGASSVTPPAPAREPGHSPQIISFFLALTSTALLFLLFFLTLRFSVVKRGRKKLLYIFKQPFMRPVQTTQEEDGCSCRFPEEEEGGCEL

B1: 5B9 monoclonal antibody (antibody, V domains shown)
VH: QVQLKQSGPGLVQSSQSLSITCTVSGFSLTTYAVHWVRQSPGKGLEWLGVIWSGGITDYNAAFISRLSITKDDSKSQVFFKMNSLQPNDTAIYYCARNGGDNYPYYYAMDYWGQGTSVTVSS
VL: DIVMTQAAFSNPVTLGTSASISCRSSKSLLHSNGITYLYWYLQKPGQSPQLLIYQMSNLASGVPDRFSSSGSGTDFTLRISRVEAEDVGVYYCAQNLELPLTFGAGTKLELKR
notes: also called 5B9 murine monoclonal antibody
B1: binds.
